± gives the half width of the 95% confidence interval.
What was measured:
[1] = folding stability dG unfold from trypsin proteolysis; higher = more stable
Procedure, shortened: (§1)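 Digests were run with trypsin and chymotrypsin at 11 concentrations in threefold dilutions, plus a no-protease condition, on designed mini-proteins in a PA-tagged cDNA display construct. The mini-proteins were under 80 residues, had no cysteine, and were kept only when AlphaFold2 dimer inter-PAE was above 15. After sequencing, Bayesian fitting of the counts gave K50, from which unfolding free energy was derived against a sequence-predicted unfolded-state K50 and a shared folded-state K50, per protease or combined.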

[2] = folding stability dG unfold from chymotrypsin proteolysis; higher = more stable
Procedure, shortened: as §1

[3] = folding stability dG unfold (combined trypsin and chymotrypsin); higher = more stable
Procedure, shortened: as §1

Row | Sequence | folding stability dG unfold [1] | folding stability dG unfold [2] | folding stability dG unfold [3]
1 | SAGGSAGGSAGKPITADEVAERVARRLRELFGPDYDINVKVVKVLPGDYVLVDVEITGDLSAGGSAGGSAGG [r11_153_TrMRF] | 2.27 ± 0.032 kcal/mol | 2.287 ± 0.021 kcal/mol | 2.28 ± 0.044 kcal/mol
2 | SAGGSAGGSAGKPTLKLVLKFDSPEQAKAAAEALAKAGYKVKVELKEYPDGLYLVVTVEPSAGGSAGGSAGG [r11_677_TrROS_Hall] | 3.29 ± 0.12 kcal/mol | 4.41 ± 0.13 kcal/mol | 4.2 ± 0.2 kcal/mol
3 | SAGGSAGGSAGKTIVLKTPEAIKNLKEGDVIKLKDGKKYKIVKVEYDKETNYFTIEIEKESAGGSAGGSAGG [r11_316_TrROS_Hall] | 2.96 ± 0.13 kcal/mol | 3.75 ± 0.17 kcal/mol | 3.54 ± 0.17 kcal/mol
4 | SAGGSAGGSAGKTVQIWIPPDEITPEALKSLAREGWKIKPIEIRRNPEDGWISITIELKPSAGGSAGGSAGG [r11_345_TrROS] | 0.597 ± 0.076 kcal/mol | 0.451 ± 0.36 kcal/mol | 0.619 ± 0.25 kcal/mol
5 | SAGGSAGGSAGKVIKLEELKKKFPNMSPEELAAFFKKLGYKVEVVKVGDVPYVFLSPGEKSAGGSAGGSAGG [r11_707_TrMRF] | 2.2 ± 0.065 kcal/mol | 3.676 ± 0.02 kcal/mol | 3.33 ± 0.049 kcal/mol
6 | SAGGSAGGSAGKVTLTIPFTNEDGTKYIAEFTFDELEVEEDVEIKIVSLGENFDLVLKPESAGGSAGGSAGG [r11_733_TrMRF] | 1.47 ± 0.069 kcal/mol | 1.67 ± 0.041 kcal/mol | 1.63 ± 0.1 kcal/mol
7 | SAGGSAGGSAGKVVLAKAKVTPPDGSEYEFDLAIEVPDDVVLVVGLHFDYPDQVDFVFEGSAGGSAGGSAGG [r11_781_TrMRF] | 1.28 ± 0.03 kcal/mol | 1.14 ± 0.017 kcal/mol | 1.2 ± 0.072 kcal/mol
8 | SAGGSAGGSAGKVVLYLPGDGTAWVLKVGDGEAVLEAEPEKVEELLEKIPGTEAVPVPGLSAGGSAGGSAGG [r11_57_TrMRF] | 0.652 ± 0.026 kcal/mol | -0.0929 ± 0.23 kcal/mol | 0.425 ± 0.12 kcal/mol
9 | SAGGSAGGSAGKVVVDFGKPALAEAFGVPLSEIENMSEEEALALAKPLVEEGVVDEVVLSSAGGSAGGSAGG [r11_80_TrMRF] | 1.26 ± 0.048 kcal/mol | 0.524 ± 0.042 kcal/mol | 0.88 ± 0.099 kcal/mol
10 | SAGGSAGGSAGKYEVTKIEVVKNEDGSEYLRVTIKVDGKEITITIPLEDAENIKIEIKPPSAGGSAGGSAGG [r17_64_TrROS_Hall] | 2.69 ± 0.086 kcal/mol | 3.59 ± 0.036 kcal/mol | 3.38 ± 0.12 kcal/mol
11 | SAGGSAGGSAGLELTVGDVPVDVYVDPDTERALAYFPLFNRVAIVDLPTGKVYVVPLDDILSAGGSAGGSAG [r3_137_TrMRF] | 1.25 ± 0.04 kcal/mol | 1.11 ± 0.14 kcal/mol | 1.15 ± 0.076 kcal/mol
12 | SAGGSAGGSAGLIVTHPDGGVTTLRLTLTFTFEGPVGPPKTVTFEFTLTVAPNGTEVTLESAGGSAGGSAGG [r11_271_TrMRF] | 3.34 ± 0.16 kcal/mol | 5.11 ± 0.11 kcal/mol | 4.72 ± 0.27 kcal/mol
13 | SAGGSAGGSAGLKLLEKELRVLTYDPETGSLSESTLRVPVLLVPPVPVPVLDPNGGLTLASAGGSAGGSAGG [r11_307_TrMRF] | -0.696 ± 0.27 kcal/mol | 0.407 ± 0.14 kcal/mol | 0.143 ± 0.11 kcal/mol
14 | SAGGSAGGSAGLLPIEELLKKNPEPVTFMVKDNDTLYRIEITPKDGKWTIEIEPLPGMKPSAGGSAGGSAGG [r11_549_TrROS] | 0.756 ± 0.021 kcal/mol | 1.49 ± 0.077 kcal/mol | 1.2 ± 0.043 kcal/mol
15 | SAGGSAGGSAGLPPGDKVTISIPIVIPDGYMINSHITIDPDNGETEIEIQIYPLKDPDALSAGGSAGGSAGG [r11_695_TrROS] | 2.1 ± 0.21 kcal/mol | 2.12 ± 0.11 kcal/mol | 2.11 ± 0.14 kcal/mol
16 | SAGGSAGGSAGLTLEVELPDGKPFPVEVLEVDPGEEDVVVIRVKVKVGDKEYEVTLVLDLSAGGSAGGSAGG [r17_536_TrMRF] | 1.94 ± 0.095 kcal/mol | 1.76 ± 0.08 kcal/mol | 1.9 ± 0.15 kcal/mol
17 | SAGGSAGGSAGMAIGLEEILARLDPERIISVEVDEENPLVTVKLRPPSGETKTITFKLSLSAGGSAGGSAGG [r17_374_JUSTAS] | 1.21 ± 0.03 kcal/mol | 0.669 ± 0.11 kcal/mol | 1.06 ± 0.07 kcal/mol
18 | SAGGSAGGSAGMDIDILTETEVTRYPDGTVVTTTTTRDSSGEVLSTTTTTTTVTPATPAASAGGSAGGSAGG [r11_452_JUSTAS] | 2.24 ± 0.15 kcal/mol | 2.6 ± 0.057 kcal/mol | 2.47 ± 0.069 kcal/mol
19 | SAGGSAGGSAGMDIPLTFTAPNADGQPVKVRVEKIIPEKGYLLVRVEYPDDREETFLDPFSAGGSAGGSAGG [r11_742_TrMRF] | -0.118 ± 0.14 kcal/mol | -0.167 ± 0.13 kcal/mol | -0.0666 ± 0.08 kcal/mol
20 | SAGGSAGGSAGMEFEVLEVIPPELLAEGGEITVGLPDGERLLVRVSPDGGVKEVRLLPPESAGGSAGGSAGG [r17_2_TrMRF] | 0.811 ± 0.12 kcal/mol | -0.435 ± 0.22 kcal/mol | 0.236 ± 0.16 kcal/mol
21 | SAGGSAGGSAGMEISTKTLPGDKYELTITLPDSKGTPITVTITFTSEEEAKKKLEEIIKKSAGGSAGGSAGG [r11_819_JUSTAS] | 1.29 ± 0.068 kcal/mol | 2.7 ± 0.11 kcal/mol | 2.27 ± 0.084 kcal/mol

Source: the supplement of paper PMC12764529
